Results on two substances are retold here after patent publication US20090118127A1.

The target of this assay is extra-cellular domain of recombinantly expressed RSV F protein (human Respiratory Syncytial Virus). Description: Biacore (SPR).
extra-cellular domain of recombinantly expressed RSV F protein (human Respiratory Syncytial Virus), sequence (P03420 26-524): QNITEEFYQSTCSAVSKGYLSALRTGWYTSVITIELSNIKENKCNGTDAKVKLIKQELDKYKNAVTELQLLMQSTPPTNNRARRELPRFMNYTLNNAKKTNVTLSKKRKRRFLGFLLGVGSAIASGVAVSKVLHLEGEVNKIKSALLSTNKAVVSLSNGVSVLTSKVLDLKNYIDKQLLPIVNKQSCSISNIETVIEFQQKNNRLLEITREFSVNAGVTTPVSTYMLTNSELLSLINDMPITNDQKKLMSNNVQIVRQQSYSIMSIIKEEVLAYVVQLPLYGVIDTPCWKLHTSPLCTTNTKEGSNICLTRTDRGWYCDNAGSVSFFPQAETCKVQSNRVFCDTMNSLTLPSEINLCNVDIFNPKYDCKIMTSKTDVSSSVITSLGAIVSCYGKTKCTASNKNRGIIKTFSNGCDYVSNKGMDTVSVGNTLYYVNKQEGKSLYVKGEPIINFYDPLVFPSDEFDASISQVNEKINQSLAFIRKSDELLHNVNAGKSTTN

Turning to “SYNAGIS® brand of pavilizumab (antibody)”, the Kd was determined as 0.4 nM.
To Numax™ (antibody) belongs 0.24 nM.

For orientation: Kd means a measure of binding affinity in units of concentration.
